T1: human B7H4, full length, on cells (human, UniProt Q7Z7D3 25-282)
T1 construct: Uniprot Q7Z7D3; Used for transfected HEK cells and for the B7H4-expressing human tumor cell lines (endogenous B7H4); also called VTCN1
T1 sequence: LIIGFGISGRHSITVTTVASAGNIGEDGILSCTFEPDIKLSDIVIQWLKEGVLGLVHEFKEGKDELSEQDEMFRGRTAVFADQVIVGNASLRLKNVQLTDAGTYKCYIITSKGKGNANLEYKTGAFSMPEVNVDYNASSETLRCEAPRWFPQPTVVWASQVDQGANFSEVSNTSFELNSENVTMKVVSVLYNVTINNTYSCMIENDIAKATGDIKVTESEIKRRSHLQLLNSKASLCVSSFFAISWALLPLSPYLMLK

T2: B7H4-IgV/B7H3-IgC
T2 construct: also called chimeric molecule with the IgV domain of B7H4 and the IgC domain of B7H3
T2 full-length chimeric protein on cells: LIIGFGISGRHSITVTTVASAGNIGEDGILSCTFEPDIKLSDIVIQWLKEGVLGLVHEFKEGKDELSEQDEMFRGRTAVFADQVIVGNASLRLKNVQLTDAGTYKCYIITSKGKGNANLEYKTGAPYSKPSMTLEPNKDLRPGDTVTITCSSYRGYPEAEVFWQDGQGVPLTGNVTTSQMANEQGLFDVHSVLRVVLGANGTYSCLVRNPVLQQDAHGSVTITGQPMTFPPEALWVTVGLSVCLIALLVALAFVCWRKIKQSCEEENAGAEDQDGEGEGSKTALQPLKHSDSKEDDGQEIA

T3: recombinant hIgG1 Fc-tagged cynomolgus monkey B7H4 (Creative BioMart, cat. no. VTCN1-1517R) (cynomolgus monkey, UniProt Q7Z7D3 25-259 (human entry))
T3 construct: Bought protein; also called cynomolgus monkey B7H4 extracellular domain
T3 sequence: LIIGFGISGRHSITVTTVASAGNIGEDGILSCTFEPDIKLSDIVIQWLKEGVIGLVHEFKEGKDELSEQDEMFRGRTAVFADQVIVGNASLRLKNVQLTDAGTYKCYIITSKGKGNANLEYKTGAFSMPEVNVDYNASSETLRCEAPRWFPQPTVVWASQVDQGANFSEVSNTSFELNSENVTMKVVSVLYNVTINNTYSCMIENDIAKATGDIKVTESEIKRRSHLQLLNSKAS

T4: B7H3
T4 construct: also called human B7H3
T4 full-length protein on cells: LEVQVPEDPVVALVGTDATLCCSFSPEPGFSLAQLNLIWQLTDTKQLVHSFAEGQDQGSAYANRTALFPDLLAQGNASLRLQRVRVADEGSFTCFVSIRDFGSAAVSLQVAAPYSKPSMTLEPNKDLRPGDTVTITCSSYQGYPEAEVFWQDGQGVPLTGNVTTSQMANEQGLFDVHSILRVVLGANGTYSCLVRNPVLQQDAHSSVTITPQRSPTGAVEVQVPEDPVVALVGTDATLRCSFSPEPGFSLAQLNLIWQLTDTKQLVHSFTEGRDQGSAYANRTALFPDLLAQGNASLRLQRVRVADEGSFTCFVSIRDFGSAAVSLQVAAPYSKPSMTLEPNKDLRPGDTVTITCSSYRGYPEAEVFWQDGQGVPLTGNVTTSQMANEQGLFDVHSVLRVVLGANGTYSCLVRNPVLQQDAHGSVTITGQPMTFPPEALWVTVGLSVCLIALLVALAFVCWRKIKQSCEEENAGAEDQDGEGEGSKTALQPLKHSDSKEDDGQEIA


Columns and labels:
[1] = target: T1, human B7H4, full length, on cells; experiment: binding to tumor cells, as CD3 bispecific (monovalent) and IgG1 (bivalent)
[2] = target: T1, human B7H4, full length, on cells; experiment: flow cytometry on SK-BR3 tumor cells [panel SK-BR3 cells]
Experimental: Cells (3×10⁴ cells/well) were incubated in polystyrene 96-well round-bottom plates (Greiner bio-one, cat. no. 650180) with serial dilutions of antibodies (ranging from 0.000458 to 30 μg/mL in 4-fold dilution steps) in 100 μL PBS/0.1% BSA/0.02% azide (staining buffer) at 4° C. for 30 min. Experiments were performed in technical duplicate. After washing twice in staining buffer, cells were incubated in 50 μL secondary antibody at 4° C. for 30 min. As a secondary antibody, R-Phycoerythrin (PE)-conjugated goat-anti-human IgG F(ab′)₂ (1:500 in FACS buffer; Jackson ImmunoResearch Laboratories, Inc., West Grove, PA, cat. no. 109-116-098), was used. Cells were washed twice in staining buffer, re-suspended in 30 μL FACS buffer containing Topro-3 (1:10,000 dilution) and analyzed on an iQue Screener (Intellicyt Corporation, USA). Binding curves were analyzed using non-linear regression (sigmoidal dose-response with variable slope) using GraphPad Prism V7.02 software (GraphPad Software, San Diego, CA, USA).
Binding was analyzed by flow cytometry as described above.

B7H4-IgV/B7H3-IgC [3] = target: T2, B7H4-IgV/B7H3-IgC; experiment: flow cytometry, transiently transfected HEK cells, MFI as % of the control antibody of the panel [continued) III]
Experimental: (§1) Expression constructs were prepared encoding human B7H4, human B7H3 (Uniprot accession no. Q5ZPR3-1; SEQ ID NO: 9), or a chimeric molecule containing the IgV domain of B7H3 and the IgC domain of B7H4 (B7H3-IgV/B7H4-IgC; SEQ ID NO: 11), or a chimeric molecule containing the IgV domain of B7H4 and the IgC domain of B7H3 (B7H4-IgV/B7H3-IgC; SEQ ID NO: 10). HEK cells were transiently transfected to express these constructs.
(§2) Cells (3×10⁴ cell/well) were incubated in polystyrene 96-well round-bottom plates (Greiner bio-one, cat. no. 650101) with serial dilutions of antibodies (range 0.0046 to 10 μg/mL in 3-fold dilution steps) in 50 μL PBS/0.1% BSA/0.02% azide (FACS buffer) at 4° C. for 30 min. After washing twice in FACS buffer, cells were incubated with secondary antibody at 4° C. for 30 min. As a secondary antibody, R-Phycoerythrin (PE)-conjugated goat-anti-human IgG F(ab′)₂ (1:500 in staining buffer; Jackson ImmunoResearch Laboratories, Inc., West Grove, PA, cat. no. 109-116-098) was used. Next, cells were washed twice in FACS buffer, re-suspended in 20 μL FACS buffer and analyzed on an iQue Screener (Intellicyt Corporation, USA).

[4] = target: T3, recombinant hIgG1 Fc-tagged cynomolgus …; experiment: BLI (Octet HTX); Fc-tagged cynomolgus B7H4 coupled to AR2G sensor, bispecific antibody in solution (monovalent B7H4 binding); 1st experiment
Experimental: In addition, the affinity of for cynomolgus monkey B7H4 was determined by BLI. […] Amine Reactive 2nd Generation (AR2G) biosensors (FortéBio, cat. no. 18-5092) were activated by reaction with 20 mM EDC (N-(3-Dimethylaminopropyl)-N′-ethylcarbodiimide hydrochloride) (FortéBio, cat. no. 18-1033) and 10 mM s-NHS (N-hydroxysulfosuccinimide sodium salt) (FortéBio, cat. no. 18-1067) for 300 s. The activated sensors were loaded with 10 μg/mL recombinant hIgG1 Fc-tagged cynomolgus monkey B7H4 (Creative BioMart, cat. no. VTCN1-1517R) in 10 mM Sodium Acetate pH 4.0 (FortéBio, cat. no. 18-1068) for 600 s and quenched with 1 M ethanolamine pH 8.5 (FortéBio, cat. no. 18-1071) for 300 s. […] A molecular mass of 150 kDa of the antibodies was used for calculations. For each antibody a reference sensor was used, which was incubated with Sample Diluent instead of antibody.
Data were acquired using Data Acquisition Software v9.0.0.49d (FortéBio) and analyzed with Data Analysis Software v9.0.0.12 (FortéBio). Data traces were corrected per antibody by subtraction of the reference sensor. The Y-axis was aligned to the last 10 s of the baseline, Interstep Correction alignment to dissociation and Savitzky-Golay filtering were applied. Data traces with a response<0.05 nm were excluded from analysis. The data was fitted with the 1:1 Global Full fit model using a window of interest for the association and dissociation times set at 100 s and 200 s respectively.

B7H3 = target: T4, B7H3; experiment: flow cytometry, transiently transfected HEK cells, MFI as % of IgG1-B7H3-BRCA84D
Experimental: as §1, §2

[5] = target: T1, human B7H4, full length, on cells; experiment: cell-based or functional assay
B7H4-IgV/B7H3-IgC [6] = target: T2, B7H4-IgV/B7H3-IgC; experiment: flow cytometry, transiently transfected HEK cells, antibody at 10 µg/mL, MFI as % of the control antibody of the panel [continued) III]
Experimental: as §1, §2

Binder	binding result [1]	EC50 (read off the curve) [2]	binding result (B7H4-IgV/B7H3-IgC [3])	Kd [4]	koff [4]	kon [4]	binding result (B7H3)	IC50 of T cell-mediated cytotoxicity, HCC1954 cells, highest of 4 donors [5]	IC50 of T cell-mediated cytotoxicity, HCC1954 cells, lowest of 4 donors [5]	IC50 of T cell-mediated cytotoxicity, MCF7 cells, highest of 4 donors [5]	IC50 of T cell-mediated cytotoxicity, MCF7 cells, lowest of 4 donors [5]	IC50 of T cell-mediated cytotoxicity, MDA-MB-468 cells, highest of 4 donors [5]	IC50 of T cell-mediated cytotoxicity, MDA-MB-468 cells, lowest of 4 donors [5]	IC50 of T cell-mediated cytotoxicity, OVCAR3 cells, highest of 4 donors [5]	IC50 of T cell-mediated cytotoxicity, OVCAR3 cells, lowest of 4 donors [5]	IC50 of T cell-mediated cytotoxicity, SK-BR3 cells, highest of 4 donors [5]	IC50 of T cell-mediated cytotoxicity, SK-BR3 cells, lowest of 4 donors [5]	binding result (B7H4-IgV/B7H3-IgC [6])
antibody B7H4-C1 (antibody, V domains shown, Parent of B7H4-C1-N52S) VH: QVQLQQWGAGLLKPSETLSLTCAVYGGSFSGYYWSWIRQPPGKGLEWIGEINHSGSTNYNPSLKSRVTISIDTSKNQFSLKLTSVTAADTAVFYCARGLFNWNFDSWGQGTLVTVSS VL: DIQMTQSPSSLSASVGDRVTITCRASQGIRNDLGWYQQKPGKAPKRLIYGASSLQSGVPSRFSGSGSGTEFTLTISSLQPEDFATYYCLQHNSYPRTFGQGTTVEIKR	binds																	
bsIgG1-huCD3-FEALxB7H4-C1-N52S-FEAR (bispecific antibody, also called bslgG1-huCD3-FEALxB7H4-C1-N52S-FEAR; CD3xB7H4) heavy 1: not shown light 1: not shown heavy 2: QVQLQQWGAGLLKPSETLSLTCAVYGGSFSGYYWSWIRQPPGKGLEWIGEISHSGSTNYNPSLKSRVTISIDTSKNQFSLKLTSVTAADTAVFYCARGLFNWNFDSWGQGTLVTVSSASTKGPSVFPLAPSSKSTSGGTAALGCLVKDYFPEPVTVSWNSGALTSGVHTFPAVLQSSGLYSLSSVVTVPSSSLGTQTYICNVNHKPSNTKVDKRVEPKSCDKTHTCPPCPAPEFEGGPSVFLFPPKPKDTLMISRTPEVTCVVVAVSHEDPEVKFNWYVDGVEVHNAKTKPREEQYNSTYRVVSVLTVLHQDWLNGKEYKCKVSNKALPAPIEKTISKAKGQPREPQVYTLPPSREEMTKNQVSLTCLVKGFYPSDIAVEWESNGQPENNYKTTPPVLDSDGSFFLYSRLTVDKSRWQQGNVFSCSVMHEALHNHYTQKSLSLSPGK light 2: DIQMTQSPSSLSASVGDRVTITCRASQGIRNDLGWYQQKPGKAPKRLIYGASSLQSGVPSRFSGSGSGTEFTLTISSLQPEDFATYYCLQHNSYPRTFGQGTTVEIKRTVAAPSVFIFPPSDEQLKSGTASVVCLLNNFYPREAKVQWKVDNALQSGNSQESVTEQDSKDSTYSLSSTLTLSKADYEKHKVYACEVTHQGLSSPVTKSFNRGEC		~1000 ng/mL	no binding (tested: 10 µg/mL)	21 nM	0.003 s⁻¹	140000 M⁻¹ s⁻¹	no binding (tested: 10 µg/mL)	8 ng/mL	1 ng/mL	25 ng/mL	12 ng/mL	4 ng/mL	1 ng/mL	12 ng/mL	3 ng/mL	16 ng/mL	2 ng/mL	
bsIgG1-huCD3-FEALxB7H4-C2-FEAR (bispecific antibody, also called bslgG1-huCD3-FEALxB7H4-C2-FEAR) heavy 1: not shown light 1: not shown heavy 2: EVQLVQSGAEVKKPGASVKVSCKASGYTFTSYWIGWVRQAPGQGLEWIGDIYPGGGYTNYNEKFKGRVTITRDTSTSTAYLELSSLRSEDTAVYYCARLDGSSYRGAMDSWGQGTLVTVSSASTKGPSVFPLAPSSKSTSGGTAALGCLVKDYFPEPVTVSWNSGALTSGVHTFPAVLQSSGLYSLSSVVTVPSSSLGTQTYICNVNHKPSNTKVDKRVEPKSCDKTHTCPPCPAPEFEGGPSVFLFPPKPKDTLMISRTPEVTCVVVAVSHEDPEVKFNWYVDGVEVHNAKTKPREEQYNSTYRVVSVLTVLHQDWLNGKEYKCKVSNKALPAPIEKTISKAKGQPREPQVYTLPPSREEMTKNQVSLTCLVKGFYPSDIAVEWESNGQPENNYKTTPPVLDSDGSFFLYSRLTVDKSRWQQGNVFSCSVMHEALHNHYTQKSLSLSPGK light 2: DIQMTQSPSSLSASVGDRVTITCKASQGFNKYVAWYQQKPGKAPKLLIYYTSTLQPGVPSRFSGSGSGRDYTLTISSLQPEDFATYYCLQYGNLLYAFGQGTKVEIKRTVAAPSVFIFPPSDEQLKSGTASVVCLLNNFYPREAKVQWKVDNALQSGNSQESVTEQDSKDSTYSLSSTLTLSKADYEKHKVYACEVTHQGLSSPVTKSFNRGEC							no binding (tested: 10 µg/mL)											binds

— US20240383982A1 (Genmab, published 2024)
